Measurements taken from patent publication US20180044406A1 (UNIVERSITY OF ROCHESTER, published 2018).

Target: T1, recombinant His-glucosaminidase (His-Gmd), 6-His tagged 53 kDa glucosaminidase subunit of S. aureus autolysin (Staphylococcus aureus, UniProt A7X0T9 776-1254)
T1 sequence: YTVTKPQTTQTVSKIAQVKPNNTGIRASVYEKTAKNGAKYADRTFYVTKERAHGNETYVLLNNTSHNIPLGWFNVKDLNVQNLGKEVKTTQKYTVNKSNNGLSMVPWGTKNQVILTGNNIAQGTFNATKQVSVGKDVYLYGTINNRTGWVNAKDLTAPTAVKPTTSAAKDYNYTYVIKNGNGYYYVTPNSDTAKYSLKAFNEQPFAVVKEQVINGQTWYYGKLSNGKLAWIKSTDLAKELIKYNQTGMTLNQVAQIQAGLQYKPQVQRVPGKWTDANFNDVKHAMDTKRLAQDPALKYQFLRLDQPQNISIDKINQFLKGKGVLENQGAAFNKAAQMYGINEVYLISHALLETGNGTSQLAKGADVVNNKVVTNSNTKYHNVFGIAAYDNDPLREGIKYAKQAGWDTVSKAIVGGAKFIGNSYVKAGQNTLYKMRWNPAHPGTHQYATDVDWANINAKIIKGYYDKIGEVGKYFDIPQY
Experiment: cell-based or functional assay

B1: monoclonal antibody 4A12 (mouse IgG1) (antibody, V domains shown)
VH: QVQLQQPGAELVGPGTSVKLSCKSSGYTFTKYWMHWLKQRPGQGLEWIGVIDPSDSYTNYNQKFKGKATLTVDTSSSTAYLQLSSLTSEDSAVYYCANYYGSYYDVMDFWGQGTSVTVSS
VL: DVQITQSPSYLAASPGETITINCRASKSISKYLAWYQEKPGKTNKLLICFGSTLQSGTPSRFSGSGSGTDFTLTISSLEPEDFATYYCQQHNEYPLTFGAGTKLELKR
- fold difference, mouse 4A12 against h4A12, in the minimum concentration able to achieve ~100% inhibition of Gmd activity: ~3 fold
